From paper doi:10.1101/2020.11.04.368837 (bioRxiv, 2020)

B1: recombinant human TRAP1 (mitochondrial Hsp90), wild type (natural protein, UniProt Q12931 60-704, looked up)
chain: STQTAEDKEEPLHSIISSTESVQGSTSKHEFQAETKKLLDIVARSLYSEKEVFIRELISNASDALEKLRHKLVSDGQALPEMEIHLQTNAEKGTITIQDTGIGMTQEELVSNLGTIARSGSKAFLDALQNQAEASSKIIGQFGVGFYSAFMVADRVEVYSRSAAPGSLGYQWLSDGSGVFEIAEASGVRTGTKIIIHLKSDCKEFSSEARVRDVVTKYSNFVSFPLYLNGRRMNTLQAIWMMDPKDVREWQHEEFYRYVAQAHDKPRYTLHYKTDAPLNIRSIFYVPDMKPSMFDVSRELGSSVALYSRKVLIQTKATDILPKWLRFIRGVVDSEDIPLNLSRELLQESALIRKLRDVLQQRLIKFFIDQSKKDAEKYAKFFEDYGLFMREGIVTATEQEVKEDIAKLLRYESSALPSGQLTSLSEYASRMRAGTRNIYYLCAPNRHLAEHSPYYEAMKKKDTEVLFCFEQFDELTLLHLREFDKKKLISVETDIVVDHYKEEKFEDRSPAAECLSEKETEELMAWMRNVLGSRVTNVKVTLRLDTHPAMVTVLEMGAARHFLRMQQLAKTQEERAQLLQPTLEINPRHALIKKLNQLRASEPGLAQLLVDQIYENAMIAAGLVDDPRAMVGRLNELLVKALERH
B2: TRAP1 fused with SpyCatcher at the C-terminus (TRAP1_(SpyCatcher)) (natural protein, human, UniProt Q12931 60-704, looked up)
chain: B1 chain

What was measured:
AUC = target: the molecule itself; experiment: AUC
native gel or EMSA = target: the molecule itself; experiment: native gel or EMSA
[1] = target: the molecule itself; experiment: single-particle cryo-EM, 2D class averages

| Protein | ratio between dimer and tetramer population (AUC) | stoichiometry N (native gel or EMSA) | stoichiometry N [1] |
| --- | --- | --- | --- |
| B1 | 7 dimer:tetramer (7:1) | 4 |  |
| B2 |  |  | 4 |
